Results: patent US20140056920A1 (Sanofi, published 2014)

Target: T1, mouse IL-4Rα (mouse, UniProt P16382 26-233, limits assumed)
T1 construct: also called mouse IL-4Rα protein; mIL-4Rα
T1 sequence (looked up): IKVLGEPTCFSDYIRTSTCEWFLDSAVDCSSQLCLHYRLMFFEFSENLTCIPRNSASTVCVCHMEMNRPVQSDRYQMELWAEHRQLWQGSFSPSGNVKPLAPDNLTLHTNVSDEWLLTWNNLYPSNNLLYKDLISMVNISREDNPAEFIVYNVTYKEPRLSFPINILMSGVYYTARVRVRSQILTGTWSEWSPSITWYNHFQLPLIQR
Assay: not described (stated in Materials and Methods of Example 4)

binding result: no binding
B1: mAb1 (human anti-IL-4R antibody H1H098-b) (antibody, V domains shown)
VH: EVQLVESGGGLEQPGGSLRLSCAGSGFTFRDYAMTWVRQAPGKGLEWVSSISGSGGNTYYADSVKGRFTISRDNSKNTLYLQMNSLRAEDTAVYYCAKDRLSITIRPRYYGLDVWGQGTTVTVS
VL: DIVMTQSPLSLPVTPGEPASISCRSSQSLLYSIGYNYLDWYLQKSGQSPQLLIYLGSNRASGVPDRFSGSGSGTDFTLKISRVEAEDVGFYYCMQALQTPYTFGQGTKLEIK
notes: also called anti-IL-4R antibody mAb1; REGN668/SAR231893
